The target of test [1] is T1, human FcγRIIaH extracellular domain, C-terminal His-tag (human, UniProt P12318 34-217).
T1 construct: Soluble extracellular domain expressed in FreeStyle 293 cells; also called FcgRIIaH; human FcγRIIa (type H); not shown: His-tag added to the C-terminus
T1 sequence: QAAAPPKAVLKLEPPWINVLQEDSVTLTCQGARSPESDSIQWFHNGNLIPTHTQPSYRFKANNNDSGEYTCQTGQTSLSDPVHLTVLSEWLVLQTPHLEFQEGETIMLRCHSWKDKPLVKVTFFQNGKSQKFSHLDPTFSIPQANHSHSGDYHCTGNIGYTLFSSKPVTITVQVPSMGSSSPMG
The test is described as follows: SPR (BIACORE); KD of SG1 divided by KD of the variant. The procedure:
(§1) The kinetic analysis of interactions between these antibodies and FcγR was carried out using BIACORE® T200 or BIACORE® 4000 (GE Healthcare). HBS-EP+ (GE Healthcare) was used as the running buffer, and the measurement temperature was set to 25° C. A chip produced by immobilizing Protein A. Protein A/G or mouse anti-human IgG kappa light chain (BD Biosciences) onto a Series S Sensor Chip CM4 or CM5 (GE Healthcare) by the amine-coupling method was used. […] After the measurement, the antibody captured on the chip was washed off by allowing reaction with 10 mM glycine-HCl, pH1.5 and 25 mM NaOH so that the chip was regenerated and used repeatedly. The sensorgrams obtained as measurement results were analyzed by the 1:1 Langmuir binding model using the BIACORE® Evaluation Software to calculate the binding rate constant ka (L/mol/s) and dissociation rate constant kd (l/s), and the dissociation constant KD (mol/L) was calculated from these values. […] Regarding such interactions, KD values were calculated using the following 1:1 binding model described in BIACORE® T100 Software Handbook BR1006-48 Edition AE.
(§2) Furthermore, the substitutions used in Example 29 for improving antibody half-life and reducing binding to rheumatoid factor were introduced into human FcγRIIb-enhanced Fc variants and their affinity against human FcγRs were analyzed (Table 29). In this SPR analysis, all the data were obtained using mouse anti-human IgG kappa light chain for capturing the antibodies of interest.
(In general: Surface plasmon resonance follows binding to a sensor surface in real time, without labels.)

For test [2], the target named is T2, human FcγRIIaR extracellular domain, C-terminal His-tag (human, UniProt P12318 34-217).
T2 construct: Soluble extracellular domain expressed in FreeStyle 293 cells; also called FcgRIIaR; human FcγRIIa (type R); not shown: His-tag added to the C-terminus
T2 chain: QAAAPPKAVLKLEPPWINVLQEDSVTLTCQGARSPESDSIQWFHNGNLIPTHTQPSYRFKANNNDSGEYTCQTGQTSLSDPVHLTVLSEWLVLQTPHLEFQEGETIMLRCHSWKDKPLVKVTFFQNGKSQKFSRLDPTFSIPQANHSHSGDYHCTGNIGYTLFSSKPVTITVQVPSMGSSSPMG
The test is described as above. The protocol: as §1, §2

The target of test [3] is T3, human FcγRIIb extracellular domain, C-terminal His-tag (human, UniProt P31994 43-217).
T3 construct: Soluble extracellular domain expressed in FreeStyle 293 cells; also called FcgRIIb; not shown: His-tag added to the C-terminus
T3 sequence: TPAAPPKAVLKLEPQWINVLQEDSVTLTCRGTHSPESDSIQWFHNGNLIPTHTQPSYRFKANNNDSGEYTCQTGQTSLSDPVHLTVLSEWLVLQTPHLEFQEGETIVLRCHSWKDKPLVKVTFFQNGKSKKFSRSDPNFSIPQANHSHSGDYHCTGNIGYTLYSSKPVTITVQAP
The description is as above. The protocol:
as §1, §2

The target of test [4] is T4, human FcγRIIIaV extracellular domain, C-terminal His-tag (human, UniProt P08637 17-208).
T4 construct: Soluble extracellular domain expressed in FreeStyle 293 cells; also called FcgRIIIaV; not shown: His-tag added to the C-terminus
Described as above. The procedure:
as §1, §2

Test [5] addresses T1, human FcγRIIaH extracellular domain, …. The test can be described thus: SPR (BIACORE), antibody captured by mouse anti-human IgG kappa light chain, FcgR extracellular domain as analyte, 25 C. The procedure: as §1, §2
For test [6], the target named is T2, human FcγRIIaR extracellular domain, …. The test is described as above. The protocol:
as §1, §2

Test [7] addresses T3, human FcγRIIb extracellular domain, …. Described as above. The protocol: as §1, §2
The target in test [8] is T4, human FcγRIIIaV extracellular domain, …. Described as above. The procedure: as §1, §2

In general, Kd refers to the free concentration of one partner at which half of the binding sites on the other are occupied at equilibrium, for simple one-to-one binding. The low end stands for a tighter complex, the high end for a looser complex.

T4 sequence (P08637 17-208 F176V): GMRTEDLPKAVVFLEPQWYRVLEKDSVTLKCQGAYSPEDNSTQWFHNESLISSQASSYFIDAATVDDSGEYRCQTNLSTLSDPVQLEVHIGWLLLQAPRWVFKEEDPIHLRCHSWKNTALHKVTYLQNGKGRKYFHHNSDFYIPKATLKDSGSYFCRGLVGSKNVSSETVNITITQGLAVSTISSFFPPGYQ

B1: MS103240H795-SG1/M103202L1045-SK1 (antibody, human IgG1, kappa)
heavy: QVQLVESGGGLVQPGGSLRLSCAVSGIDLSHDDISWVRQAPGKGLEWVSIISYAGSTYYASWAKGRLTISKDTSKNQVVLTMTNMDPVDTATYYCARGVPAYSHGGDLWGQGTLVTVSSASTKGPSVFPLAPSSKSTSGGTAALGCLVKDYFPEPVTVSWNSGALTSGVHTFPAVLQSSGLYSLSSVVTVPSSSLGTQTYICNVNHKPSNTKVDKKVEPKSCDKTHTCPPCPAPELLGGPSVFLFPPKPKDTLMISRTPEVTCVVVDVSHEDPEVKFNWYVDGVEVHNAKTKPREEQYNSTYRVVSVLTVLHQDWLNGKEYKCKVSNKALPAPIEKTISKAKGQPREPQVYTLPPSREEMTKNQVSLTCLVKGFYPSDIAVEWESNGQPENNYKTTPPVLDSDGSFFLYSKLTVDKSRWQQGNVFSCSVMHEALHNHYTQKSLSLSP
light: DIVMTQSPATLSLSPGERATLSCTTSQSVYHENWLSWFQQKPGQPPKLLIYWASTLAYGVPSRFSGSGSGTDFTLTISSLQPEDAATYYCAGGYGGGRYAFGQGTKVEIKRTVAAPSVFIFPPSDEQLKSGTASVVCLLNNFYPREAKVQWKVDNALQSGNSQESVTEQDSKDSTYSLSSTLTLSKADYEKHKVYACEVTHQGLSSPVTKSFNRGEC
notes: Parent constant region SG1 (human IgG1-like); also called MS1032LO19-SG1; copies: 2 + 2
B1: the “KD fold for humanFcgRs (SG1 = 1)” value in test [1], in test [2], in test [3] and in test [4] was 1 fold each time. The Kd in test [5] amounted to 0.97 µM; in test [6] it was 1.2 µM; in test [7] it was 4.7 µM; in test [8], 0.72 µM.

B2: MS103240H795-TT33/M103202L1045-SK1 (antibody, human IgG1, kappa)
heavy: QVQLVESGGGLVQPGGSLRLSCAVSGIDLSHDDISWVRQAPGKGLEWVSIISYAGSTYYASWAKGRLTISKDTSKNQVVLTMTNMDPVDTATYYCARGVPAYSHGGDLWGQGTLVTVSSASTKGPSVFPLAPSSKSTSGGTAALGCLVKDYFPEPVTVSWNSGALTSGVHTFPAVLQSSGLYSLSSVVTVPSSSLGTQTYICNVNHKPSNTKVDKKVEPKSCDKTHTCPPCPAPEYLGGDSVFLFPPKPKDVLMISRTPEVTCVVIDVSHEDPEVKFNWYVDGVEVHNAKTKPREEQYNSTYRVVSVLPVLHRDWLNGKEYKCKVSNKALPKPIEKTISKAKGQPREPQVYTLPPSREEMTKNQVSLTCLVKGFYPSDIAVEWESNGQPENNYKTTPPVLDSDGSFFLYSKLTVKKSRWQQGNVFSCSVMHEALHNHYTQKSLSLSP
light: DIVMTQSPATLSLSPGERATLSCTTSQSVYHENWLSWFQQKPGQPPKLLIYWASTLAYGVPSRFSGSGSGTDFTLTISSLQPEDAATYYCAGGYGGGRYAFGQGTKVEIKRTVAAPSVFIFPPSDEQLKSGTASVVCLLNNFYPREAKVQWKVDNALQSGNSQESVTEQDSKDSTYSLSSTLTLSKADYEKHKVYACEVTHQGLSSPVTKSFNRGEC
notes: copies: 2 + 2
As to B2, the “KD fold for humanFcgRs (SG1 = 1)” value in test [1] is 0.028 fold; in test [2], 0.05 fold; in test [3], 15.7 fold; in test [4], 0.002 fold. The Kd in test [5] was found to be 35 µM; in test [6] it was 23 µM; in test [7] it was 0.3 µM; in test [8] it was 400 µM.

B3: MS103240H795-TT66/M103202L1045-SK1 (antibody)
heavy: QVQLVESGGGLVQPGGSLRLSCAVSGIDLSHDDISWVRQAPGKGLEWVSIISYAGSTYYASWAKGRLTISKDTSKNQVVLTMTNMDPVDTATYYCARGVPAYSHGGDLWGQGTLVTVSSASTKGPSVFPLAPSSKSTSGGTAALGCLVKDYFPEPVTVSWNSGALTSGVHTFPAVLQSSGLYSLSSVVTVPSSSLGTQTYICNVNHKPSNTKVDKKVEPKSCDKTHTCPPCPAPELLGGDSVFLFPPKPKDVLMISRTPEVTCVVVDVSHEDPEVKFNWYVDGVEVHNAKTKPREEQYNSTYRVVSVLPVLHRDWLNGKEYKCKVSNKALPKPIEKTISKAKGQRREPQVYTLPPSREEMTKNQVSLTCLVKGFYPSDIAVEWESNGQPENNYKTTPPVLDSDGSFFLYSKLTVDKSRWQQGNVFSCSVMHEALHAHYTRKELSLSP
light: DIVMTQSPATLSLSPGERATLSCTTSQSVYHENWLSWFQQKPGQPPKLLIYWASTLAYGVPSRFSGSGSGTDFTLTISSLQPEDAATYYCAGGYGGGRYAFGQGTKVEIKRTVAAPSVFIFPPSDEQLKSGTASVVCLLNNFYPREAKVQWKVDNALQSGNSQESVTEQDSKDSTYSLSSTLTLSKADYEKHKVYACEVTHQGLSSPVTKSFNRGEC
Take B3: the “KD fold for humanFcgRs (SG1 = 1)” value in test [1] amounted to 0.007 fold; in test [2] it was 0.04 fold; in test [3], 4.7 fold; in test [4], 0.001 fold. The Kd in test [5] came to 130 µM; in test [6], 32 µM; in test [7], 1 µM; in test [8], 590 µM.

B4: MS103240H795-TT68/M103202L1045-SK1 (antibody)
heavy: QVQLVESGGGLVQPGGSLRLSCAVSGIDLSHDDISWVRQAPGKGLEWVSIISYAGSTYYASWAKGRLTISKDTSKNQVVLTMTNMDPVDTATYYCARGVPAYSHGGDLWGQGTLVTVSSASTKGPSVFPLAPSSKSTSGGTAALGCLVKDYFPEPVTVSWNSGALTSGVHTFPAVLQSSGLYSLSSVVTVPSSSLGTQTYICNVNHKPSNTKVDKKVEPKSCDKTHTCPPCPAPELLGGDSVFLFPPKPKDVLMISRTPEVTCVVVDVSHEDPEVKFNWYVDGVEVHNAKTKPREEQYNSTYRVVSVLPVLHRDWLNGKEYKCKVSNKALPKPIEKTISKAKGQPREPQVYTLPPSREEMTKNQVSLTCLVKGFYPSDIAVEWESNGQPENNYKTTPPVLDSDGSFFLYSKLTVKKSRWQQGNVFSCSVMHEALHAHYTRKELSLSP
light: DIVMTQSPATLSLSPGERATLSCTTSQSVYHENWLSWFQQKPGQPPKLLIYWASTLAYGVPSRFSGSGSGTDFTLTISSLQPEDAATYYCAGGYGGGRYAFGQGTKVEIKRTVAAPSVFIFPPSDEQLKSGTASVVCLLNNFYPREAKVQWKVDNALQSGNSQESVTEQDSKDSTYSLSSTLTLSKADYEKHKVYACEVTHQGLSSPVTKSFNRGEC
notes: copies: 2 + 2
Consider B4, for which the “KD fold for humanFcgRs (SG1 = 1)” value in test [1] stood at 0.005 fold; in test [2], 0.02 fold; in test [3], 4.9 fold; in test [4], 0.001 fold. The dissociation constant (Kd) in test [5] amounted to 210 µM; in test [6], 61 µM; in test [7] it was 0.96 µM; in test [8] it was 480 µM.

B5: MS103240H795-TT67/M103202L1045-SK1 (antibody)
heavy: QVQLVESGGGLVQPGGSLRLSCAVSGIDLSHDDISWVRQAPGKGLEWVSIISYAGSTYYASWAKGRLTISKDTSKNQVVLTMTNMDPVDTATYYCARGVPAYSHGGDLWGQGTLVTVSSASTKGPSVFPLAPSSKSTSGGTAALGCLVKDYFPEPVTVSWNSGALTSGVHTFPAVLQSSGLYSLSSVVTVPSSSLGTQTYICNVNHKPSNTKVDKKVEPKSCDKTHTCPPCPAPELLGGDSVFLFPPKPKDVLMISRTPEVTCVVVDVSHEDPEVKFNWYVDGVEVHNAKTKPREEQYNSTYRVVSVLPVLHRDWLNGKEYKCKVSNKALPKPIEKTISKAKGQRREPQVYTLPPSREEMTKNQVSLTCLVKGFYPSDIAVEWESNGQPENNYKTTPPVLDSDGSFFLYSKLTVDKSRWQQGNVFSCSVLHEALHAHTTRKELSLSP
light: DIVMTQSPATLSLSPGERATLSCTTSQSVYHENWLSWFQQKPGQPPKLLIYWASTLAYGVPSRFSGSGSGTDFTLTISSLQPEDAATYYCAGGYGGGRYAFGQGTKVEIKRTVAAPSVFIFPPSDEQLKSGTASVVCLLNNFYPREAKVQWKVDNALQSGNSQESVTEQDSKDSTYSLSSTLTLSKADYEKHKVYACEVTHQGLSSPVTKSFNRGEC
For B5, the “KD fold for humanFcgRs (SG1 = 1)” value came to 0.008 fold in test [1], 0.04 fold in test [2], 3.9 fold in test [3] and 0.001 fold in test [4]. The Kd worked out at 120 µM in test [5], 28 µM in test [6], 1.2 µM in test [7] and 610 µM in test [8].
